{"source": "patent US8754193", "about": "(dated 2014)", "key": {"[1]": {"target": "Streptavidin-PE (Streptomyces avidinii, UniProt P22629)", "sequence (P22629 37-163)": "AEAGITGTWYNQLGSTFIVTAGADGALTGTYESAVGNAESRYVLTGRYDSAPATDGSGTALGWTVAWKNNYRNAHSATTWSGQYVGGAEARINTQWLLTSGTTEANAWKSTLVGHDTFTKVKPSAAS", "assay": "yeast"}, "[2]": {"target": "GAPDH (human, UniProt P04406)", "sequence (P04406 2-335)": "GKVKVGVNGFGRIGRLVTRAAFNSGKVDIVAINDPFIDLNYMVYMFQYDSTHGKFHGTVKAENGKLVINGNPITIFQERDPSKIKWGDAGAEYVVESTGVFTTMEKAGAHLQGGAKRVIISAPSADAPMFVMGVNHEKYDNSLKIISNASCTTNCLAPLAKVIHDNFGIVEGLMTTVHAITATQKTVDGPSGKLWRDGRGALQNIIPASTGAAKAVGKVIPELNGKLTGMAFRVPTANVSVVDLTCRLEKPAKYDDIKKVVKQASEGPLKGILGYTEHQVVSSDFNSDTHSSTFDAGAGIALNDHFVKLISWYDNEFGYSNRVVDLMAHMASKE", "assay": "yeast"}, "[3]": {"target": "T1, TrkB (human, UniProt Q16620)", "T1 sequence (Q16620 32-430)": "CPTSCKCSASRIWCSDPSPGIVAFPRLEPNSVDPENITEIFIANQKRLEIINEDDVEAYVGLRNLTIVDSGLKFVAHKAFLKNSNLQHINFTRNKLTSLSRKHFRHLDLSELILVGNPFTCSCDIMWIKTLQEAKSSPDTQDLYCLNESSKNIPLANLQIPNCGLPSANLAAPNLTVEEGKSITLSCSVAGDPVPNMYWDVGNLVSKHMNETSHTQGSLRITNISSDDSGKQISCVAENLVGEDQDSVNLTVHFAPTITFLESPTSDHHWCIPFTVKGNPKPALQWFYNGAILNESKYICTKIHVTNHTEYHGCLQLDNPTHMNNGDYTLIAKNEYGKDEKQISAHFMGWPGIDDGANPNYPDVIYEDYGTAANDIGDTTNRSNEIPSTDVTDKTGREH", "assay": "yeast"}, "[4]": {"target": "T1, TrkB", "assay": "yeast", "remark": "listed apart in the source"}, "[5]": {"target": "T2, TrkA/Fc (human, UniProt P04629)", "T2 chain": "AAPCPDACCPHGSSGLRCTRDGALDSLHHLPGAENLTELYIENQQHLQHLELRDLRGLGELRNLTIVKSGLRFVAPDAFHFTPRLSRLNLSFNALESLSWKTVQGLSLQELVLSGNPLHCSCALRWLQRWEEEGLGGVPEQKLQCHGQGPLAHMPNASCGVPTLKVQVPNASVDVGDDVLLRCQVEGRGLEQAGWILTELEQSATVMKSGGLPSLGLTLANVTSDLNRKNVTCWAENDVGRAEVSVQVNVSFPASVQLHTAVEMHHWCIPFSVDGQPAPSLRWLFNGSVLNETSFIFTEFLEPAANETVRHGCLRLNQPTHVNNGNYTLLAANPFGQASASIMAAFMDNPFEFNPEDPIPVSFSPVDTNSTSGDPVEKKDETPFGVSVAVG", "assay": "yeast"}, "[6]": {"target": "TrkC/Fc (human, UniProt Q16288)", "sequence (Q16288 32-429)": "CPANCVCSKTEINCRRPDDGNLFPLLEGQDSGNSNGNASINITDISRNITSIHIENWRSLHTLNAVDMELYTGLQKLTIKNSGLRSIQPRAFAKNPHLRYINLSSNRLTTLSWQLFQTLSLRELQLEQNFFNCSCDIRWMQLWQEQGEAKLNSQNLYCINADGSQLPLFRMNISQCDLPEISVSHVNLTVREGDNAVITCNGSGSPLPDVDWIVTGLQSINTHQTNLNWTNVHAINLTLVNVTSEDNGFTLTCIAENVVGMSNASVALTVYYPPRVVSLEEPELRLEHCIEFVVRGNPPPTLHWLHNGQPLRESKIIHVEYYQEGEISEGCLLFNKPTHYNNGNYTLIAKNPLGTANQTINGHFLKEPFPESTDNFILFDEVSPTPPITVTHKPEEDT", "assay": "yeast"}, "[7]": {"target": "T1, TrkB", "assay": "FACS, soluble GFAb on TrkB-loaded beads"}, "[8]": {"target": "T1, TrkB", "assay": "yeast", "remark": "listed apart in the source"}, "[9]": {"target": "T1, TrkB", "assay": "competition, solution phase"}}}
{"binder": "GFAb 2.17 (designed binder, conjugate with phycoerythrin) chain 1: not shown chain 2: KARMRLFLM chain 3: EYGDTLLS", "values": [{"measurement": "Kd", "setting": "[1]", "result": 110, "unit": "nM"}]}
{"binder": "GFAb G8 (designed binder) chain 1: not shown chain 2: SHCLFRKCY chain 3: ARSIRMKV", "values": [{"measurement": "Kd", "setting": "[2]", "result": "> 500", "unit": "nM"}]}
{"binder": "T3 102-103 loop only (designed binder) chain 1: not shown chain 2: VINPFTVRS chain 3: SRERDYRLDYTR", "values": [{"measurement": "Kd", "setting": "[3]", "result": 19, "unit": "nM"}]}
{"binder": "GFAb G4 (designed binder) chain 1: not shown chain 2: RGVSKSFLL chain 3: QGITKGYK", "values": [{"measurement": "Kd", "setting": "[2]", "result": "> 500", "unit": "nM"}]}
{"binder": "20-5-8 scaffold (designed binder) chain 1: not shown chain 2: LKQHFWSTPRTTS chain 3: SRERDYRLDYTR", "values": [{"measurement": "binding result", "setting": "[4]", "result": "no binding"}]}
{"binder": "GFAb T3 (designed binder) chain 1: not shown chain 2: VINPFTVRS chain 3: NAWVVHRR", "values": [{"measurement": "binding result", "setting": "[5]", "result": "no binding"}, {"measurement": "binding result", "setting": "[6]", "result": "no binding"}, {"measurement": "Kd", "setting": "[7]", "result": 34, "unit": "nM"}, {"measurement": "Kd", "setting": "[8]", "result": 3.2, "unit": "nM"}, {"measurement": "Kd", "setting": "[9]", "result": "~10", "unit": "nM"}, {"measurement": "Kd", "setting": "[3]", "result": 2, "unit": "nM"}]}
{"binder": "GFAb G7 (designed binder) chain 1: not shown chain 2: NVIYPFLYA chain 3: RVTKTKHK", "values": [{"measurement": "Kd", "setting": "[2]", "result": "> 500", "unit": "nM"}]}
{"binder": "GFAb 2.7 (designed binder, conjugate with phycoerythrin) chain 1: not shown chain 2: VFSSLRYHV chain 3: LRMDDTNP", "values": [{"measurement": "Kd", "setting": "[1]", "result": 140, "unit": "nM"}]}
{"binder": "T3 172-173 loop only (designed binder) chain 1: not shown chain 2: LKQHFWSTPRTTS chain 3: NAWVVHRR", "values": [{"measurement": "Kd", "setting": "[3]", "result": 300, "unit": "nM"}]}
{"binder": "GFAb G6 (designed binder) chain 1: not shown chain 2: RVSRFLLTT chain 3: KSRIISSQ", "values": [{"measurement": "Kd", "setting": "[2]", "result": 18, "unit": "nM"}]}
{"binder": "GFAb 1.3 (designed binder, conjugate with phycoerythrin) chain 1: not shown chain 2: AISRSFFST chain 3: IRNLKYTN", "values": [{"measurement": "Kd", "setting": "[1]", "result": 70, "unit": "nM"}]}
